The data set can be described thus: label from the status in PepcDB records.

The values below come from a protein production outcome set (Wang et al. 2014).

Turning to “MLDAAIKALTQILSPPMRSILWRSVGFALALIAVAAIGLQRLLSWAATSSELWAEAALGGFQTPLNILSWVLSIAAGLGIVVGAVFLMPAVTSLVAGIFVDEAAEHVERESYPHEAPGVALPIGLATWETVKTALLTILVYLVALPFLFVAGAGAIVFFVATAWLLGREYFELAAMRFRTAPEAKAMRRDNATTVFIGGLIIAAFVSIPIVNLATPLFGMAFMVHLHKRLSGSRPEVLAPDQRSMLR”, the protein production result is reported as “failed”.

Consider “MLDHVIRGATVVDGTGAPAYTADVGIRDGRIAAVGTVTEPARAGEDAAGLVLAPGFVDPHTHYDAQLFWDPYATPSLNHGVTTVAGGNCGFTLAPLNPDRPQDADYTRRMMSKVEGMSLVALEEGAPWSWHTFGDYLDALEGRIAVNAGFMVGHCALRRYVMGPDAVGGRPTREQLERMLALFHEAMDAGAWGLSTTQSSTHSDGDGQPVASRHARPAELLALARAVGEHEGTQIEAIVAGCLDQFSDAEIDLFVEMSAAAGRPLNWNVLTIDAAVPERVPRQLTASERARKAGGRVVALTMPILTPMNMSLGTFCALNLIPGWGEVLGLPVPERIARLRDPDVRAELLRRADSKEAGVFRRLANFGRYVIGDTYSTANEGLTGRVVNDIAAERGQDPFHCLVEICAADELRTVLWPMPTDNDPDSWALRAETWRHKDVLLGGSDAGAHLDRMCGAPYTTRFLGDCLRGRKLVPLEQAVKMLTDDPARLFGLRDRGRIREGFHADLVLFDPARIDAGKATLVHDLPGDSPRLDSKAIGVTAVWVNGVEAIRDDVVTGAVPGKVLRSGRDTRTVSTR”, for which the protein production result is on record as “failed”.

For “MLDKNVLNEIGSKVNEILASSPARDVEKNMRAMLTGAFARLDLVTREEFDVQQEVIKRTRIKLAELEEKVRKLEQQLQQPAEVVSSNETGDA”, the protein production result is “not failed”.

On to “MLDLAAPFFLLLLPLPFLVRRFLPPHAAQEGALYLPEAFAAAARPTSAFARSERWEGALRAILWLALVLALAGPERLKAVPDLSASGREIVLTLDMSGSMLIEDFDIDGVQSTRLEAVKRVARSFVEERQGDRIGLVLFANRAYVAAPLTFDLAAVGRAIEEASIGITGRSTAIADGLGLALKSVTESSAASRVIVLLSDGQDNAHQIDARQVAGLAARHGVRIHTIALGPDDLETRPAARDAVDTATLRAIAEASGGRSYRVRGMEDLRAMAADLDRLEPNPAERPPVLVPEPLWPWPALLALGAALVLGLRRAGLAPWPRRAGRAA”, for which the protein production entry is listed as “failed”.

As for “MLDLNPNQSYIIRINKKGGINMHWLADLLAAIGVVLNGIPQGIMAMSLGFAVFPTAFSFGLVGLINGVASSVAPVSFQAESLALVGHLGHDLRERSSIIFLGASLMFVIGLTGTLPLIVHSLGNQLMAAMMAGVGLMLAKIALQMAHEQPQFGWLSIGLAGVTYLISKDLVWTIAVSVIGTSCYAATTHYRVALPEHVTTRKLQFVRPQFSFKILRGALSLACLNIGANLSYGLITGQMTGQHPNPVNLNLLTSSQALADLGTSLLGGAPVETIISATASAPEPVIAGILMMLIMMLILLLGWLPKLGKVVPSTAIAGFLFILGTIVIFPENATTALHGSLSTVAGVTLVVTALVDPFAGLMTGALLKFGLPLIGLGL”, the protein production result is recorded as “failed”.

Turning to “MLDLVAAFIALTTLLTYVNYRFIRLPPTIGVMATALVFSLIVQGLSELGYPILEVEMQEIIRRIDFSEVLMTWFLPALLFAGALHVDLSDLRSYKWPIGLLATAGVLIATFVIGGLAYYTFPLFGWQVDFIYCLLFGALISPTDPIAVLGILKSAGAPKPLATTIVGESLFNDGTAVVVFAIILGILQLGEAPTVSATAILFVQEAIGGVVFGAVLGYGVFVMMRGIDQYQVEVMLTLALVIGGAALAARLHVSAPIAMVVAGLIIGNHGRHYAMSDETRRYVDKFWELIDEILNALLFALIGLELLLLPFSWLHVAAAFALGGAVLVSRLLTVGPAILVLRRFRGANRQVPAGTIRILVWGGLRGGVSVALALSLPLGPERDLILSLTYIVVLVSILLQGLSIGPLVRRIYAGQPLEKSEGAH”, the protein production entry was “failed”.

For the sequence “MLDLVSSKTTPVFSLVAFAVIHSLTASLPFKRMVMKAAGPRAEKLYLPAYSLVAVLTVLPLAYQLYKNPGRILYKIPSPWRWLMVGGQVIAGILAPMAFWNAPHRFKIRSQLSGPQASEEGSLKIKGIYRWVRDPFLLSGLVVMLLTPFMTVNLLIVYLLTTVYLFLGSLHWETRLVAQFGDEYREYQKKVHRIIPELKGSVKNPGDKASE”, the protein production result was “failed”.

As to “MLDPARGYDLIGDVHGCAHTLEHLLELLGYRLQAGVWRHPERIAIFLGDIIDRGPRIRESLHIVRDMVQAGQAYCIMGNHEFNALGWMTPALPESGHLFVREHTPRHARLIGETLAQFEAYPDEWNEFVNWFYELPLYIDAGRFRVVHACWDATLIDPLRGLHGTGCIDRHFVQASAVPGSFASNVFNRLLRGTDMRLPHGLTLTGGDGLTREFFRTKFWEDNPQTYGDVVFQPDALPEGVAKTPLSTSEKNALLRYGSNEPLLFVGHYWRSGIPAPIRPNLACLDYSAVLYGKLVAYRLDQETHVDPDKFVWVDVQRPEVSP”, the protein production result is recorded as “failed”.

Turning to “MLDPARSFDIIGDVHGCALTLERLLDALGYKRVAGVWRHPRRQALFLGDIVDRGPRIREALHIVHDMVEAGQAFCIMGNHEYNALGWVTPALPGSGKAYVREHTPRHARLIDETLTQFAQHPGDWHDFVNWFYQLPLFIDAGRFRLVHACWDPRLIEPLRQQYPDGRIDEHFIQASAVSGSFADTVCNRLLRGTDMRLPDGLTLTGGDGLTRAFFRTKFWEEDPKTYGDIVFQPDALPEEVASTPLSHSQKNALLRYDEDQPMLFVGHYWRSGRPAPIRANLACLDYSAVLYGKLVAYRLDDETRIDPHKFVWVDVDRPQANQLEHHHHHH”, the protein production entry is given as “not failed”.

On to “MLDPYRRYRHARLIHAVRVALGLIATILLTTGLNLPHGEWASVTMLVVIGGLQHHGNIGKKAAERAIGTLVGAGVGLVLVVQQAYFGHPWLTYLGMSVVCGYFSYHAIGKGGYTALLAAITVFIVAGHGDNQVSDGLWRAVDILIGIALALAFSFAIPLYAVYSWRYNLASALRDCAQLYGRIIKGQSVTDDEHLKLLGRVNSAMLQLRSLMPSVSKEVRISMTELDAIQRNLRMCISTLEILGNTRPDASDPQAMAQMQLALKAEHRQIRVQLIGMARALQSGVTQRLEKSVEGHPENALEAPVYSALDGYRLLTRQLAATLGEMHQRLAKSARHWKI”, for which the protein production entry is “failed”.

“MLDRLRFPHPWLSLTLFVMWQFLSDGISGGSIVLGLILAWIIPLMTQGFWPDPPTLLKAWKTPAYLLRVLWDIVVASVDVARLILSPRAPRPMFICYTLELTDPLAISILASTISLTPGTVSADVSDDNTLLLIHALDAEDEQEVIDTIRNRYEKPLLEMFQ”: the protein production result was “failed”.

Turning to “MLDSAQLIFDLQKVNTTSKRISGCLDTTAITKEITEALIHDFHCVFARIWLTEPDGASLKLVASSGLHTSTNGSFARVPMGAYKVGKIAQSCIPFLSNHLANETWVKDRDWAIANNIRGFAGYPLVGHDRVIGVLAVFSEAPFVAEFLEVLQVLCMAVAIAIDAVRQLQSETNTINTTQFLDDQIP”, the protein production entry is “failed”.

As for “MLEATNTPSKTEEPAAPVNPALAAEAKIARIAVTVFPLLVVVAGVLGFLIPDLFKPMGVAVPYLLGVIMFCMGLTLTPPDFASVARRPWAVALGIVAHYVIMPGAGWLIAVLLQLPPELAVGLILVGCAPSGTASNVMAFLAKGDVALSVAVASVSTLIAPIVTPTLTLFLAGSFLHIDAGAMVMDIVKTVLLPVIAGLLARLFLSKLVAKVLPALPWASAVVISLIVAIVVAGSASKIVAAGAIVFLAVVLHNGFGLGLGYLAGKLGRLDDKARRALAFEVGMQNSGLAATLATAHFSPLAALPSAVFSLWHNISGAIVAAWLARRPLKD”, the protein production entry is given as “failed”.
